Reference: paper PMC4451617

Tests used:
[1] = molecular target: ErbB4 receptor (rat (endogenous in rat brain membranes and cultured rat hippocampal neurons)); experiment: co-IP; ErbB4 immunoprecipitated with mAB10 from lysates (PBS + 1% TX-100) of cultured rat hippocampal neurons (>DIV 28), unstimulated or 10 nM NRG2 for 10 min; western blot, densitometric ratio of glutamate receptor subunit over ErbB4
[2] = molecular target: ErbB4 receptor (rat (endogenous in rat brain membranes and cultured rat hippocampal neurons))

Chain of ErbB4 receptor (rat (endogenous in rat brain membranes and cultured rat hippocampal neurons)) (Q62956 26-1308): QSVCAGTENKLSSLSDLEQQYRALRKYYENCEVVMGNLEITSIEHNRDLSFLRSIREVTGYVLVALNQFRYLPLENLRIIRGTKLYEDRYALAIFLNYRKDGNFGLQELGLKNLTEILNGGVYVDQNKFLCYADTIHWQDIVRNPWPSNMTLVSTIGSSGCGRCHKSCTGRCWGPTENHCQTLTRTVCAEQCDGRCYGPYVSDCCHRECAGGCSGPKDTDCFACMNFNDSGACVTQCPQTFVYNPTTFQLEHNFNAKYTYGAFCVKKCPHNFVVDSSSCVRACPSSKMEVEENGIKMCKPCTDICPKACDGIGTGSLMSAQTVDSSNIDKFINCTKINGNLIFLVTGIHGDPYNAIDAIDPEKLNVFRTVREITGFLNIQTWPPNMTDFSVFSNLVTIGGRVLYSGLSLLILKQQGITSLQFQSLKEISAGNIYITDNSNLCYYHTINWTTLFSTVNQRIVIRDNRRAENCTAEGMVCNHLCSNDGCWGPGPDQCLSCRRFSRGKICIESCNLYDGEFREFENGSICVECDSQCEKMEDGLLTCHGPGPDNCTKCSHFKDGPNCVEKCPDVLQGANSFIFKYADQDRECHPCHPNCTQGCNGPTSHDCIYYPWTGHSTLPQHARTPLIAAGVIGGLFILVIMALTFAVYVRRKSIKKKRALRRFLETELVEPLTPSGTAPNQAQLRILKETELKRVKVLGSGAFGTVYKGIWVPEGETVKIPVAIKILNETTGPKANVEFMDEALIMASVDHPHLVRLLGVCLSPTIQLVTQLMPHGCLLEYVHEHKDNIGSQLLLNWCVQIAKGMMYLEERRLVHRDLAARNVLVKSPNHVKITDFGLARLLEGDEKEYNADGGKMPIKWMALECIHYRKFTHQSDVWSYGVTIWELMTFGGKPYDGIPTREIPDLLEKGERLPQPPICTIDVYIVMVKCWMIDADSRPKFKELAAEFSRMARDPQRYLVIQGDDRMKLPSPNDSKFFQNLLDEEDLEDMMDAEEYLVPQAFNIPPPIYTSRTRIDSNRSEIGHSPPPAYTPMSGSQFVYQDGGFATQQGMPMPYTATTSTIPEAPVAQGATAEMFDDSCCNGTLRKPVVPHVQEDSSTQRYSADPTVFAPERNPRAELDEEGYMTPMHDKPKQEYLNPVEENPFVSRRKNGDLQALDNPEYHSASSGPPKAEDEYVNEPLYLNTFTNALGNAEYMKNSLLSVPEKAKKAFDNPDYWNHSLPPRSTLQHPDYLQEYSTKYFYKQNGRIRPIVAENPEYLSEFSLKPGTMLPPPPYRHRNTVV

co-immunoprecipitation after NRG2, % of unstimulated controls (% of controls) [1] | Substance | whole-cell NMDA-evoked currents (100 μM NMDA, +40 mV) in ErbB4+ cultured hippocampal interneurons after 10 min of 10 nM NRG2, relative to baseline; ErbB4-negative neurons not affected (% of baseline) [2]
198 | GluN2B subunit of the NMDA receptor (from UniProt Q00960 27-1482) | 
 | recombinant NRG2-ECD (neuregulin 2 extracellular domain) (ligand) | 43
